Assay results reported in patent publication US20080182299A1.

How the values were obtained:
[1] = biological target: Mouse monoclonal antibody clone 13A3.G6.H1, lot #18881C, raised against CGEN3901 (SEQ ID NO:50); assay: antibody capture competitive ELISA format #5; coat 13A3.G6.H1; tracer biotin-labeled CgenBNP_29; unlabeled peptide as competitor
[2] = biological target: Mouse monoclonal antibody clone 13A3.G6.H1, lot #18881C, raised against CGEN3901 (SEQ ID NO:50); assay: antigen capture competitive ELISA format #4; coat CgenBNP_49; detector 13A3.G6.H1; free peptide spiked in serum as competitor
[3] = biological target: Mouse monoclonal antibody clone 13A3.G6.H1, lot #18881C, raised against CGEN3901 (SEQ ID NO:50); assay: antigen capture competitive ELISA format #4, repeatability tests

| Binder | LOD [1] [ng/mL] | LOD [2] [ng/mL] | LOD [3] [ng/mL] |
| --- | --- | --- | --- |
| AEGSSGGLDSSNERVLTCCPKRPSSFLWN [AEWN 29 (also called herein CgenBNP_29, SEQ ID NO: 48)] | 5 | 0.3 | 1 to 3 |
| H-HPLGSPGSASDLETSGLQVRAEGSSGGLDSSNERVLTCCPKRPSSFLWN-OH (cysteine pairing not given here) [HPWN49 (also called herein CgenBNP_49, SEQ ID NO: 49)] |  | 0.6 | 1 to 3 |
